Source: paper PMC5893359 (Cancer cell, 2018)
One block for each molecule: values may come before it.

Legend:
[1] = biological target: epidermal growth factor receptor, endogenous in A431 cell lysate (human (endogenous in A431)) (UniProt P00533); assay: ELISA
[2] = biological target: epidermal growth factor receptor, endogenous in A431 cell lysate (human (endogenous in A431), UniProt P00533 25-1210); assay: ELISA

Kd [1]: 217 nM
Molecule: amphiregulin, recombinant (from UniProt P15514 20-187) (ligand)

Kd [2]: 885 nM
B1: bovine RNase A (enzyme, UniProt P61823 27-150, looked up)
chain: KETAAAKFERQHMDSSTSAASSSNYCNQMMKSRNLTKDRCKPVNTFVHESLADVQAVCSQKNVACKNGQTNCYQSYSTMSITDCRETGSSKYPNCAYKTTQANKHIIVACEGNPYVPVHFDASV
